{"source": "patent US20110166063A1", "about": "(priority 2008, published 2011)", "key": {"[1]": {"test": "OGF release rate and stability of OGF", "type": "physicochemical", "conditions": "160 hours at 37° C., pH 7.5 and 16 hours at 37° C., pH 10.0"}, "rat red blood cells [2]": {"test_system": "rat red blood cells", "test": "Hemolysis assay, V681(V13AD) series", "type": "cell-based", "conditions": "37° C., relative to 0.25% Triton X-100", "procedure": "Hemolysis assay. Approximately 10 mL of blood was drawn from one adult rat into Na Heparin tube and kept in ice until use. Red blood cells were washed three times with 10 mL of cold DPBS ((−) CaCl2 and (−) MgCl2) and collected by sequential centrifugation at 3,000 g for 5 min at 4° C. Pellets of red blood cells were resuspended with DPBS ((−) CaCl2 and (−) MgCl2) and the total volume was brought up to initial volume of blood drawn. One mL of resuspended red blood cells was resuspended with 49 mL of DPBS ((−) CaCl2 and (−) MgCl2). Incubation mixture was prepared by 400 fold dilution of stock solution of test compounds with final volume of 800 μl. Final concentration of test compounds was equimolar to that of respective unconjugated compounds. Hemolysis incubation was done at 37° C. with mild agitation.\nFor releasable conjugates, test compounds were preincubated in 1×PBS at 37° C. prior to hemolysis assay. Incubation mixture was centrifuged at 3,000 g for 5 min at 4° C., and the absorbance at 550 nm was read from supernatant."}, "[3]": {"test": "Pharmacokinetic study of V681 (V13AD) conjugates, single IV dose in rats", "type": "in vivo, Sprague-Dawley rats", "conditions": "1.0 mg/kg equivalent protein mass IV", "source_text": "The weight range of the animals was 311-346 grams. All animals were food fasted overnight. […] The predose sample was collected from the JVC.\nFollowing the last collection point, the animals were euthanized."}, "[4]": {"conditions": "pH 5"}, "human δ opioid receptor": {"molecular_target": "human δ opioid receptor (Homo sapiens, UniProt P41143)", "sequence (P41143 whole entry)": "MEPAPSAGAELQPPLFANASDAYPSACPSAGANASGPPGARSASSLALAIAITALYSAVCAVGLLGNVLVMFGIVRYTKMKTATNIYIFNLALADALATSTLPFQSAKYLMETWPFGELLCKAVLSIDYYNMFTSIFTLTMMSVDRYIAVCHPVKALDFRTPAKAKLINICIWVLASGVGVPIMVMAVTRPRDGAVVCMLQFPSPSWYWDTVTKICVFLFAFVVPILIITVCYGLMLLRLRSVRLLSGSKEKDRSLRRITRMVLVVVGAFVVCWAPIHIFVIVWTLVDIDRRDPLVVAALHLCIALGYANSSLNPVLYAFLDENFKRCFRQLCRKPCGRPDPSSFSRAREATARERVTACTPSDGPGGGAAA", "test": "Radioligand competition binding assay, biphalin series, δ opioid receptor", "method": "(§1) Competition binding experiments were conducted by incubating membrane protein to equilibrium in triplicate in the presence of a fixed concentration of radioligand and increasing concentrations (0.1 nM to 10 μM) of test compound in 100 μL final volume. The radioligands used were specific for each receptor type, and the assay conditions are described in Table BIP6.3. Following incubations, the membranes were rapidly filtered through GF/B filter plate (presoaked with 0.5% polyethyleneimine), washed four times with cold 50 mM Tris-HCl, pH 7.5, and the bound radioactivity was then measured. Non-specific binding was measured in the presence of excess naloxone (100 μM); this value was subtracted from the total binding to yield the specific binding at each test concentration.\n(§2) The test compounds were stored under acidic condition to stabilize the PEG conjugation.\n(§3) Ki (affinity of test compound) was obtained using the Cheng Prusoff correction using experimental Kd (affinity of radioligand) values that were previously determined under these assay conditions."}, "human μ opioid receptor": {"molecular_target": "human μ opioid receptor (Homo sapiens, UniProt P35372)", "sequence (P35372 whole entry)": "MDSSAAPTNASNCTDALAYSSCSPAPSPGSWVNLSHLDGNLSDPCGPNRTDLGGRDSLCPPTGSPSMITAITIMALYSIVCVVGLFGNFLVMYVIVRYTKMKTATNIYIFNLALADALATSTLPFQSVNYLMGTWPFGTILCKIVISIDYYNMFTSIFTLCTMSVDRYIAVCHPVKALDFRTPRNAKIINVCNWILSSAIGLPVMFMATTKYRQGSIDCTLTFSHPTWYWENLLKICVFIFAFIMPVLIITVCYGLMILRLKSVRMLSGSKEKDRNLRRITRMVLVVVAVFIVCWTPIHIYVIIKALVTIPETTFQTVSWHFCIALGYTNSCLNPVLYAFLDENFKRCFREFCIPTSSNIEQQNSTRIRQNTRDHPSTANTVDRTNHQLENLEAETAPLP", "test": "Radioligand competition binding assay, biphalin series, μ opioid receptor", "method": "as §1, §2, §3"}, "[5]": {"conditions": "due to rapid proteolysis and glomerular filtration; cited from earlier work"}, "[6]": {"test": "Pharmacokinetic study of protegrin conjugates, single IV dose in rats", "type": "in vivo, Sprague-Dawley rats", "conditions": "[…] equivalent protein mass IV", "method": "The weight range of the animals was 313-346 grams. All animals were food fasted overnight.\nFollowing the last collection point, the animals were euthanized. Bioanalytical analysis: analysis of the plasma samples was conducted using non-validated LC-MS/MS methods."}, "rat red blood cells [7]": {"test_system": "rat red blood cells", "test": "Hemolysis assay, protegrin-1 series", "type": "cell-based", "conditions": "for hemolytic effect: rat red blood cells, 37° C., relative to 0.25% Triton X-100", "procedure": "Approximately 10 mL of blood was drawn from one adult rat into Na Heparin tube and kept in ice until use. Red blood cells were washed three times with 10 mL of cold DPBS ((−) CaCl2 and (−) MgCl2) and collected by sequential centrifugation at 3,000 g for 5 min at 4° C. Pellets of red blood cells were resuspended with DPBS ((−) CaCl2 and (−) MgCl2) and the total volume was brought up to initial volume of blood drawn. One mL of resuspended red blood cells was resuspended with 49 mL of DPBS ((−) CaCl2 and (−) MgCl2). Incubation mixture was prepared by 400 fold dilution of stock solution of test compounds with final volume of 800 μl. Final concentration of test compounds was equimolar to that of respective unconjugated compounds. Hemolysis incubation was done at 37° C. with mild agitation. For releasable conjugates, test compounds were preincubated in 1×PBS at 37° C. prior to hemolysis assay. Incubation mixture was centrifuged at 3,000 g for 5 min at 4° C., and the absorbance at 550 nm was read from supernatant."}, "[8]": {"type": "physicochemical"}, "[9]": {"molecular_target": "T1, GPR54 G-Protein coupled receptor (Homo sapiens, UniProt Q969F8)", "T1 construct": "host or cells: Chem-1 host cells", "T1 sequence (Q969F8 whole entry)": "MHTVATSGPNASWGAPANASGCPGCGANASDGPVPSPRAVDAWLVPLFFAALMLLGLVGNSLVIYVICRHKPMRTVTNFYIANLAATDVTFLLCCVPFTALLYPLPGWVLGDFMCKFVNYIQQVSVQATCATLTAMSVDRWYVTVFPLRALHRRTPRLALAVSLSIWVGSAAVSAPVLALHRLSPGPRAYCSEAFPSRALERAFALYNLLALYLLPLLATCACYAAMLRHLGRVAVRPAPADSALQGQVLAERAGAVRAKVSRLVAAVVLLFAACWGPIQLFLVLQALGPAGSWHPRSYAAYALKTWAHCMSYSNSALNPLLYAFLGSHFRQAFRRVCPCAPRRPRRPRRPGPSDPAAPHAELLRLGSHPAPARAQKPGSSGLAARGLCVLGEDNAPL", "test": "FLIPR calcium flux agonist assay on GPR54", "type": "cell-based", "conditions": "no release incubation"}, "[10]": {"conditions": "Pre-incubated in assay buffer pH 7.5 at 37° C. (72 h biphalin and di-CAC; 20 h di-C2 and di-SBC)"}, "[11]": {"conditions": "sample diluted on the day of the assay (unreleased)"}, "[12]": {"conditions": "test compound in plasma (non-releasable conjugates, native PG-1), Mean ± SD"}, "[13]": {"conditions": "protegrin-1 in plasma (released or native)"}}, "note": "Values joined by “and” are separate entries in the source; they are usually repeats but may differ in a detail not shown here. Identical values can stand only once. Like-named read-outs stand apart in the source and are kept apart here. Marks after values point to notes of the source that are not given here. Ends that are not written are not given here."}
{"molecule": "CSCC[C@H](NC(=O)[C@H](Cc1ccccc1)NC(=O)CNC(=O)CNC(=O)[C@@H](N)Cc1ccc(O)cc1)C(=O)O", "note": "[OGF, Opioid Growth Factor]", "values": [{"measurement": "stability of the peptide following pre-incubation", "setting": "[1]", "value": "remained stable"}]}
{"molecule": "[mono]-[mPEG2-20K]-[V681(V13AD)] [NHS-20K-V681 (V13AD)]", "values": [{"measurement": "hemolytic effects", "setting": "rat red blood cells [2]", "value": "almost eliminated"}, {"measurement": "AUCINF", "setting": "[3]", "value": "53.0 ± 1.1", "unit": "µg·h/mL"}, {"measurement": "CL", "setting": "[3]", "value": "0.315 ± 0.0065", "unit": "mL/min/kg"}, {"measurement": "Cmax", "setting": "[3]", "value": "5210 ± 211", "unit": "ng/mL"}, {"measurement": "MRT", "setting": "[3]", "value": "7.6 ± 1.1", "unit": "h"}, {"measurement": "T1/2", "setting": "[3]", "value": "5.8 ± 1.0", "unit": "h"}, {"measurement": "Vss", "setting": "[3]", "value": "0.143 ± 0.0237", "unit": "L/kg"}, {"measurement": "mean AUC as multiple of V681 (V13AD)", "setting": "[3]", "value": 24, "unit": "times"}]}
{"molecule": "mono-mPEG-SBC-30K-ziconotide [SBC-ziconotide conjugate]", "values": [{"measurement": "stability of the conjugate", "setting": "[4]", "value": "very unstable"}]}
{"molecule": "(SPA-2K)2-biphalin [Di-mPEG-SPA-2K-biphalin]", "values": [{"measurement": "inhibition of specific binding at the highest test concentration", "setting": "human δ opioid receptor; 10 μM", "value": "no measurable inhibition"}, {"measurement": "inhibition of specific binding at the highest test concentration", "setting": "human μ opioid receptor; 10 μM", "value": "no measurable inhibition"}]}
{"molecule": "GHRH: growth hormone releasing hormone, stimulates growth hormone secretion from the anterior pituitary gland", "values": [{"measurement": "half-life", "setting": "[5]", "value": "0.167 to 0.333", "unit": "h"}]}
{"molecule": "[mono]-[mPEG-SMB-30K]-[V681(V13AD)] [SMB-30K-V681 (V13AD)]", "values": [{"measurement": "hemolytic effects", "setting": "rat red blood cells [2]", "value": "almost eliminated"}, {"measurement": "AUCINF", "setting": "[3]", "value": "158 ± 43", "unit": "µg·h/mL"}, {"measurement": "CL", "setting": "[3]", "value": "0.11 ± 0.0267", "unit": "mL/min/kg"}, {"measurement": "Cmax", "setting": "[3]", "value": "4380 ± 505", "unit": "ng/mL"}, {"measurement": "MRT", "setting": "[3]", "value": "38.3 ± 18.2", "unit": "h"}, {"measurement": "T1/2", "setting": "[3]", "value": "26.6 ± 12.5", "unit": "h"}, {"measurement": "Vss", "setting": "[3]", "value": "0.235 ± 0.05", "unit": "L/kg"}, {"measurement": "mean AUC as multiple of V681 (V13AD)", "setting": "[3]", "value": 123, "unit": "times"}]}
{"molecule": "(CAC-20K)2-biphalin [Di-CAC-PEG2-FMOC-NHS-20K-biphalin]", "values": [{"measurement": "Ki", "setting": "human μ opioid receptor; [10]", "value": 13.7, "unit": "nM"}, {"measurement": "Ki", "setting": "human μ opioid receptor; [11]", "value": 1120, "unit": "nM"}]}
{"molecule": "[Protegrin-1]-[PEG-di-ButyrAldehyde-5K]-[Protegrin-1] (RGGRLCYCRRRFCVCVGR-NH2; cysteine pairing not given here; also: two peptide copies linked by PEG-dibutyraldehyde 5K; UniProt P32194 131-148, looked up) [PG-1-PEG-5K-PG-1]", "values": [{"measurement": "CL", "setting": "[6]; [12]", "value": "2.25 ± 0.154", "unit": "mL/min/kg"}, {"measurement": "T1/2", "setting": "[6]; [12]", "value": "6.8 ± 0.65", "unit": "h"}, {"measurement": "Vss", "setting": "[6]; [12]", "value": "0.248 ± 0.0221", "unit": "L/kg"}, {"measurement": "hemolytic effect", "setting": "rat red blood cells [7]; listed as PG1-ButyrALD-5K-PG1", "value": "little hemolytic activity"}, {"measurement": "hemolytic effect", "setting": "rat red blood cells [7]; listed as PG1-ButyrALD-PG1", "value": "almost eliminated"}]}
{"molecule": "dextran-butyraldehyde-40K-protegrin-1 (RGGRLCYCRRRFCVCVGR-NH2; cysteine pairing not given here; also: dextran-butyraldehyde 40K conjugate; UniProt P32194 131-148, looked up) [Dextran-PG1]", "values": [{"measurement": "hemolytic effect", "setting": "rat red blood cells [7]", "value": "almost eliminated"}]}
{"molecule": "C[C@@H](NC(=O)[C@@H](N)Cc1ccc(O)cc1)C(=O)NCC(=O)N[C@@H](Cc1ccccc1)C(=O)NNC(=O)[C@H](Cc1ccccc1)NC(=O)CNC(=O)[C@@H](C)NC(=O)[C@@H](N)Cc1ccc(O)cc1", "note": "[Biphalin, reference compound]", "values": [{"measurement": "stability of the peptide following incubation", "setting": "[8]; 72 hour incubation in assay buffer, pH 7.5 at 37° C.", "value": "remained stable"}, {"measurement": "Ki", "setting": "human μ opioid receptor; [10]", "value": 3.1, "unit": "nM"}, {"measurement": "Ki", "setting": "human μ opioid receptor; [11]", "value": "3.4 nM and 4.7 nM"}]}
{"molecule": "(SBC-30K)2-biphalin [Di-mPEG-SBC-30K-biphalin]", "values": [{"measurement": "Ki (nM), δ Opioid Receptor", "setting": "human δ opioid receptor; [10]", "value": "not obtained"}]}
{"molecule": "CC(C)C[C@H](NC(=O)CNC(=O)[C@H](Cc1ccccc1)NC(=O)[C@H](CO)NC(=O)[C@H](CC(N)=O)NC(=O)[C@H](Cc1c[nH]c2ccccc12)NC(=O)[C@H](CC(N)=O)NC(=O)[C@H](Cc1ccc(O)cc1)NC(=O)[C@H](CC(N)=O)NC(=O)[C@@H]1CCCN1C(=O)[C@@H](N)CC(C)C)C(=O)N[C@@H](CCCNC(=N)N)C(=O)N[C@@H](Cc1ccccc1)C(N)=O", "note": "[KP13, Kisspeptin-13]", "values": [{"measurement": "EC50", "setting": "[9]; agonist activation at GPR54", "value": 11, "unit": "nM"}, {"measurement": "Fold change compared to metastin", "setting": "[9]", "value": 1}]}
{"molecule": "mono-[mPEG2-CAC-FMOC-40K]-[PG-1] (RGGRLCYCRRRFCVCVGR-NH2; cysteine pairing not given here; also: releasable CAC-PEG2-FMOC 40K PEG, mono-conjugate, site not given here; UniProt P32194 131-148, looked up) [CAC-PEG2-FMOC-40K-PG-1, PG1 conjugate with a releasable linker]", "values": [{"measurement": "T1/2 (hr)", "setting": "[6]; [13]", "value": "0.13* hr"}, {"measurement": "Tmax", "setting": "[6]; [13]", "value": 1.8, "unit": "min"}, {"measurement": "hemolytic effects relative to that from PG1", "setting": "rat red blood cells [7]; conjugate preincubated for 96 hr in 1XPBS at 37° C.", "value": "60-70%"}]}
{"molecule": "(SBC-30K)2-biphalin", "values": [{"measurement": "stability of the conjugate", "setting": "[8]; purification from the reaction mixture, even at acidic pH values", "value": "instability"}]}
{"molecule": "(C2-20K)2-biphalin [Di-C2-PEG2-FMOC-NHS-20K-biphalin]", "values": [{"measurement": "Ki", "setting": "human μ opioid receptor; [10]", "value": 10.1, "unit": "nM"}, {"measurement": "Ki", "setting": "human μ opioid receptor; [11]", "value": 21.7, "unit": "nM"}]}
